Results from the domain aggregation screens of Martell et al. (2025).

Assay: soluble fraction after stress (log2 fold change); higher = more stays soluble; pooled small domains, quantitative proteomics
Conditions: stress: pH 4
Summary of the method: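 Values are on a log2 scale, where higher means more of the domain stayed soluble after pH 4 stress. They are fold changes in the soluble amount of each domain from pooled custom libraries, measured by high-throughput quantitative proteomics. The fold change is taken to reflect aggregation propensity.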

Sequence	soluble fraction (log2)
HMEQIGSIIKDIRKKNNLTQNEFASILGVTFQAVSKWENDKSIPDITILKDISNKFNVDLNYLISG	-0.48
HMERPYNGKQMEYHEGGVEKKETLFVEGGLSRVIQWDESGQKRSEVNISPTGVRREQYWDSSGKAIAKPS	0.0672
HMEEMADILKTRIDTLDLSTRTLNALTGANIRTVGGIARKKKEDLLELAGMGEKGIQEIKKVLGGFGITL	0.15
HMSGTYIATVEAGSLDIYKSMTSNETIGKASRGDVFQILEDMGSGYARVSYNDVEGYMSIKTGDASIEEL	-1.83
HMEPLPDIPRGTRVSHQTAPADGDMPERRETGWTMTEPIRAQDGLAYVGVSVYGRGVVMLPVNSLSII	-0.557
HMVKLDDLTGQDKASAEAAISNLGLKYSEQQEYSDEIEEGKVTRTDPGAGSTSLKAGDTVTVYISRGPE	-0.348
HMDVFPDESLKAWLIEMGFKLDQKKMNVFTVLRRMLLQTAPSVKEFRILEIVLQQSRRKLKELNDLKKS	-0.36
HMTVMTGSQRRKKILELMRDAKEPLSGGALGKETGVSRHVVVQDIALLRTQGYPIVATARGYIINE	≥ 0.43
HMKPDAAKREQLIDIALRLFSQQGIARTSLNAIAREAGVTPAMLHYYFNSREQLLDVMIEERFL	-1.45
HMELVEVGDLTGLTVEQAENVLKNSNISISIDKYDESDKYEKDQIISQNPQNKKVKKGTAIHVVLSNGP	-0.181
HMLNPLLLPFVEAEDFQVKLEILAAMEGKVGEEDLDILYEALDLPKMTGNIEEQIHSIKQYIEMRK	-1.39
HMSSVDLLSERERQVLARISRGMSNEEIAAELAITPRTVRNHLANIYGKIDVHSRAEAVVWARERGIT	-0.152
HMEIFYGDDRVYTVSLHGQNNFPFRKKTSDFDYGFEDGTGDEEYLRVLDVTLSRLENEQFDLLFFQAGV	-0.842
HMKEKDAYTSEILDTLKNAKLLVVEGTVYPLLTRLKNDGLLNYRWEESTSGPPRKYYGLTDEG	-0.449
HMRPADTAAMLKYLSSGAVKGIGGALAGRIIEAFGDESIKVIEEDPARLATVKGITLKKAKEISEEMQRVN	0.0199
HMSHGFVHLKGAVQHPGIYPVKENTRWDEVVKAAGGLTAAADIQQVNLAKVASDQESLYVPEKGET	0.161
HMFDREKFIKLGQEFARVAFENVNKRATDRALKTAAKHYGLPSADELLARLGSSEIAARDVVAELYPNL	-0.28
HMDSAQLARWAATILAQNGRKITPSTMNLFLERVGDDMENIRMELEKLISYTMGSEVVTAEDVKVITTVQ	-0.82
HMDAHIGTLTPRERETLHHLAIGHSNKVIAKKLNLAESTVKAYVQSILRKLGLSSRVQAAVYAIQHDIR	-0.23
HMNAFEIYPNPASNLIRIDAEFTVAKIFSQTGNLIQTSTTKEIDVYNLANGIYFVKLDDSPSMVKFVIN	-1.09
HMGKDTLKLKKNAIPYDENGKKLTNLGYSYIKKTTVLNYYGTKIINGSTYYFLGDGVYIKAANVGTTSH	0.232
HMINEDMTQSDRMELWGRLIDVVEDWLAEKGITEEDIPNEEREGVEDAAIIFGDDYDYLADRFSEVIGISR	-1.99
HMQPHLSADEEHLLKILGSDTMHIDALVKRSTLETSNALAALAFLEMKGLVKNIGNMHYIRTYR	-0.518
HMRGGLATLTPRERQVLALMAEGRSNAGIAAELVVSGGAVEKHVASIFTKLGLPPDESDNRRVLAVLRHLG	-0.186
HMRGHASVEIKRIVYKYKLTDQELAKITGMKASDFPIYHDHLQLILPKRYWARVLDALQNYEKEHES	≥ 0.43

Sequence	soluble fraction (log2)
HMDEDTWKLYKRAYKKYYARYMKGNMSEEAFKTWAAQAARDRDAAIEQVKAALDENLKAQVIERLKEELNR	0.22
HMTGSTSVAQVSTPSGSLNLRAYASTSARVLLQIPEYAFVTVYNRGATWSYVSYNGVSGYVMSVYLSFGG	-0.846
HMLVKKYTEEETGRQAELSKQLAELSKAYYNTGNSMVDDAVFDKLRDELSSLEKESGFAYDISPNVS	-0.276
HMAKTGMDALVGRRVVLTKAIAGEGEGLVAVDGDVWRATSPAGSAIPKGTEVRITGYRSIVLEVEPI	0.139
HMELDREALSDGLRRLSQLLAEDDIESRTLFRELAPGLKEQLGDDAVEKLAGHISRYEFEQAGALLATSG	-0.61
HMKKILIVTNRSAGMVVYTIPEEGIRREFTPGETKKIPFEELEKLAYLSGGRTLMENFLKIVDTETTEELG	-1.44
HMAMTITKIEKTSQQKIYYFTDSGRVFKKMSDRSATIAVDDRVELEGGVLGSKFFVTANGSRVKVKEV	0.0344
HMNTPAENFDKAVEKYKSTNSATEKDAAFKVIEDEWIKLSDEEKKERQDEYDSIFESEGDRV	0.22
HMFINTVELGRAIKRRREELGLSLRDVADVTNVSASTLSRIENGTGKPDADNIARLTGWLDMPIDRVM	0.164
HMEKNKERIAFLKKRLEMYYEAEEKILQGQSYTIGSRTLTRTSLANVQSKIKELESEISALETRGN	-0.653
HMYDEKTLRKAVLDYVRDNDDGRLDLMKIDSYLTSRYGNIDYAALGYNRLSMFISSFPELRRNSNYVTLRK	-0.158
HMVLAEPLSERELDILRLLAAGDSNKEIAAVLYITEGTVKNHVTNILGKLDARDRTQAALRARELGL	-0.373
HMERQAEAWTNRASALISLGRDEEALEAADRAIELDPRLSKAWIDRSTALSNLGRNDEANEAIQMAMFL	-0.962
HMEEQQIQLIQMKMEKDHKYVGKKISELRIKNMLIVLIKRGDEDIIPRAEVKIKEGDILVLSAQSYEG	-0.29
HMESYTGLAVTEDDDGWSNVRSGNSTSYSILFKIYAGEKFNILSNDGKWSYIDFNGRKGYIHNSIIRKY	0.31
HMDHKSSYWSVKEANLFPELLKQFGSQWSLISDKLGTKSTTMVRNYYQRNAAQLGWKSVVEEADFKRNA	0.0284
HMQFETVQDAFNHYRNASLEEIESRAAEIKGIIESDPEADVRALNIEIEGLHQAKQNILEKQKTK	-0.064
HMVSEDELLARIALLPYPQAKILLEERLSHDPANAKVRQLYLELAKKSGDHTEVTRHNSLLY	0.0149
HMEAALTLRVDKAGSLRSLLSDEQYAKTSKIIVSGEINTLDIKTLQEMSGEKGSLQSIDLSQANIVAY	-0.351
HMGDDYFTILGIERDATTDEIRSAYRRLSKKIHPDAQGSSALFRQVQEAYETLIDPSSRARYVAELNASQG	-0.0836
HMNSVYTPDPKELAKAIKIVTAAREAEQKGQGVIAVDGRMVDAPVVSQALRILELARLAGMEVSE	0.22
HMNDPIGDMLTRIRNAQMRGKSTVSTPASKLRAWVLEVLASEGYIRGFERATTDNGQGELVISLD	-0.253
HMKVDRLISIVLVLLDKNRISAQELADMFEVSLRTIYRDIDAIELAGIPIRSTSGVGGGFEIMPNY	-1.19
HMEEIQLILAKNLKSIREKEKLSLEKVSQLTGVSKTMIGQIERGDSSPTLTTIWKIANGLKVSFTSLINNP	0.182
HMISDDLYQAVLDFTLTQDTISISRLQQNFNLGWPRARQLYDQLMQNGIIEPPDEANSAKGAVVIANKRG	-1.06

Sequence	soluble fraction (log2)
HMNALTEAESKLLERMNKAGIHAEITTKKAAGILQRSENGARTVLNSLVKKGYLTVETNKAPYIYHLH	0.301
HMSDKEDIDKYLLTYGDLLFNRTNSSEWVGKTAIYRGEVSAIYAGYLIRIRSFLDAEYLNSVMNSKYA	-0.485
HMGPEAFPVPYIVDIELDRAIYVIEQSGFIVGQKLEANDDNVPRGFVISQNPAAGTKLGPNSVVDLVISSG	-0.893
HMSAPNPGQMHSWTDTQGRTLQATFIKADATTVTLNWNGRIVPIPLANLNAASQKLARELASAS	-0.0969
HMLQARKFTHIQGYEFEAEFLRTNGEFVELQDPQGRKKWFPISNFIQDDKDFIKEQAGNLSS	-0.903
HMGKIFSELTPREIEVVRLIADGLSNQQIAEELFLSNGTVRNHISTILEKTGLEHRTQIAVMWLR	-0.742
HMGITMFGQNLKKLRTSKNLSQSKLSKILGISSSTIGMYEQGRRFPDQTILTKIADFFDVSTDYLLGR	0.339
HMKKPLEYIDVDKREDFPPVPNGMRYIHFYGGTKNYRAYIAPEDISRADFMEQYPEYVPEHN	0.0177
HMIQTKNVTFTINEKTKIANIPLKSLKILSQEDNRITLSYEKNSLKIDEIISYFSDKNINILDITTD	-1.05
HMEFEYTVVVPETRGKTIGEAGRILLDLELKYTSESMNIREDSKVIDQFPSPGTEVSKGSIIDLYLDE	-1.91
HMRTAKEVFYKELKGYMQNGDELSVKKIYSLFPEINPKTVSWRLHELVQHGKIHRTGHGYYALTQ	0.0797
HMDIEFSDELRTFIDEWSKKEGGLVMMLHRIQNEYGFIPRTAAEKLSLISGIPLARIYGVITFYHFFKT	-1.01
HMQEGPGLVPDFRGQTMREVLRGGQSLGVRVAVDGTGLAVAQTPEPGSPLNKVSQVTVSFRPP	0.22
HMPTSILEKILNSAAEQFTRYGFKTITMDDIARHAGVSKKTLYQHFETKLDIIVAAVTHFHTMKF	-1.65
HMTEPKRIVDHWQPSDDVYDILRMSHIDLDFARSLLPEFIVYWKDSSQTHTSWNSKFLQHAKYHWAKRHQL	-1.21
HMQNGNYVVQRQDSLWSIAARISGQTHQPIGEVMNHIKALNEHAFVGGNVNRLRTGTNLNLG	0.125
HMGETYTIPDVRGYTLEDAMELPEIKENGFTIIEGRQIVDADVPVGQIISQTPEAESIAKSNVKEITVNIS	-0.367
HMTAGYFTRGSHQDEVLRIQGTPSGVNKYSDHEVWNYGLSSVDISLRDRRVTEWNNISGNLKV	-0.35
HMKGVSFEEIERAVRTAQNPEADETAQQHAGMVFSRMEGNELFDKLVQSSSTIGKKITGLMDYYL	-0.378
HMDVYKRQKLRNFIESLFEDAPKNKQTIELKEEMLQNLIDKYNDLVDSGKSSEAAYNIATAS	-0.0341
HMGRLTTKIVLYDRIENIVPERRKELVADIEKRIGVKVEVLEIGHVDFVRDAAWLKVSYYLAPGE	-1.35
HMDYDDLVPLDARGRLRLDGQDIILAFGRHRGRSIEEVHNHDKSYFDWLVSPAGGLEDEVIATLRERF	-1.4
HMNSHLEEGRHGLQIGDPGIVRARIESDPEGETDMPVVVIDGRNISWNEFGRMVATYTGFQFKLEM	-0.58
HMYQPLRDVIFETLRKAIVSGDIKPGERLMEVSLANQMGVSRTPVREAIRRLEAEGLVTMTPRKGTHVAE	-0.215
HMSSEYARFFSGNYYEVLGVAKNASYDEIKAAWKKLVKEYHPDLHPQRQEEFTKIIQKINEAYEYFKKMH	-0.201
